Laboratory results: US20240400689A1 (ANTENGENE BIOLOGICS, published 2024)
Each block holds one binder with its values, some of them ahead of it.

Key:
[1] = target: T1, Macaca fascicularis CD276 (Macaca fascicularis); test: FACS on CHO-S-cynoCD276 cells
T1 construct: whole, on cells; also called cynomolgus monkey CD276; cynoCD276
Experimental: (§1) Screening & Expansion—The subcloning plates were screened by protein or cell-based Elisa, and the subclones with good binding ability were expanded to 24-wells for confirmation tests. The specificity and cross-reactivity of these subclones were confirmed with FACS analysis. Briefly, parental CHO-S cells, CHO-S-hCD276, CHO-S cell line stably over-expressing Macaca fascicularis CD276, CHO-K1 S, cell line stably over-expressing mouse CD276 were incubated with antibodies produced by each subclone respectively. Fluorescent dye-conjugated secondary antibody was used to detect the binding of the primary antibody with the cells. Median fluorescence intensity was measured by FACS analysis.

[2] = target: T2, human CD276 protein (human, UniProt Q5ZPR3 29-534); test: FACS on CHO-S-hCD276 cells
T2 construct: whole, on cells; for SKOV3 and the other cancer lines the protein is the cells' own; also called B7-H3; B7H3
T2 sequence (looked up): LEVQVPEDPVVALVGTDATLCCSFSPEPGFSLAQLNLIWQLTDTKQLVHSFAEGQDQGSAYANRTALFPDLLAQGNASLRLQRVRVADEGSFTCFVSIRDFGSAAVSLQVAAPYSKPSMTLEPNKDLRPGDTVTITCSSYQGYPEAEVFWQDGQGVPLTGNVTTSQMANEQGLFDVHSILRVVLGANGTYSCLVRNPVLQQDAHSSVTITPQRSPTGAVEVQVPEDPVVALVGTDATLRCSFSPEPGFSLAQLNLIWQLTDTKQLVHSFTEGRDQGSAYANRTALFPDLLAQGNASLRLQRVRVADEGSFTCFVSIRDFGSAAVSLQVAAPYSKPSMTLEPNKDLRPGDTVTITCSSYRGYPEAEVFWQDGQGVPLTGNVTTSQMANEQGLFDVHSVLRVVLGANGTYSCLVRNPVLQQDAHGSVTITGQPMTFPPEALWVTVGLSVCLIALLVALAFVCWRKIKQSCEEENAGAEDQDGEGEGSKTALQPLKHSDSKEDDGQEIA
Experimental: as §1

[3] = target: T3, mouse CD276 protein (mouse, UniProt Q8VE98 29-316); test: FACS on CHO-S-mCD276 cells
T3 construct: whole, on cells; also called mCD276; CHO-S-mCD276
T3 sequence (looked up): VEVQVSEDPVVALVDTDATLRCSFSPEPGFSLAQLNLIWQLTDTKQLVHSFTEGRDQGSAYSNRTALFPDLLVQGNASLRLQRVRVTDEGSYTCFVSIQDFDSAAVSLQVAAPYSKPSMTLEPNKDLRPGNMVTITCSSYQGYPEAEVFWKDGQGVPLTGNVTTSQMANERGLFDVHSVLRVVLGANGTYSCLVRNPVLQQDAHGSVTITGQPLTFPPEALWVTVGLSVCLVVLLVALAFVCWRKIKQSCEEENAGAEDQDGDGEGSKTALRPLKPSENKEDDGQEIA
Experimental: as §1

B2: 3-F2-E7-F9 (antibody, V domains shown)
VH: QVQLQQSGPELVRPGVSVKISCKGSGYTFTDYTMHWVKESHAKSLEWIGVISTYYGNTNYNQKFKGKATLTVDKSSSTAYMELAGLTSEDSAIYYCARASYGSGYGPYYWYFDVWGAGTTVTVSS
VL: DIQMTQSPASLFASVGETVTITCRASEKIYSYLAWYFQKQGKSPQFLVYNANALAEGVPSRFSGSGSGTQFSLKINSLQPEDFGTYYCQHHYGTPVTFGAGSKLELK
notes: mouse monoclonal antibody (hybridoma)
FACS MFI [1]: 35700 | FACS MFI [2]: 52300 | FACS MFI [3]: 1140

B3: 20-A2-D10-G8 (antibody, V domains shown)
VH: QVQLQQSGPELVRPGVSVKISCKGSGYTFTDYTMHWVKESHAQSLEWIGVISTYYGNTNYNQNFKGKATLTVDKSSSTAYMELAGLTSEDSAIYYCARASYGSGYGPYYWYFDVWGAGTTVTVSS
VL: DIQMTQSPASLFASVGETVTITCRASEKIYSYLAWYFQKQGKSPQFLVYNANALAEGVPSRFSGSGSGTQFSLKIKSLQPEDFGTYYCQHHYGSPVTFGAGSKLELK
notes: as for B2
FACS MFI [1]: 9020 | FACS MFI [2]: 77100 | FACS MFI [3]: 1260

B6: 16-C6-F7-F5 (antibody, V domains shown)
VH: QIQLVQSGPEVKKPGETVKISCKASGYTFTKYGINWVKQAPGEGLKWMGWIWTYTGKPTYGDDFKGRFAFSLETSASTAYLQISDLKIEDMATYFCARDDGYYYTMNYWGQGTSVTVSS
VL: DIVMTQTPLSLPVSLGDQASISCRSSQSLLHTNGDTYLHWYLQKAGQPPKLLIYKVSNRFSGVPDRFSGSGSGTDFTLKISRVEAEDLGVYFCSQSTHIPWTFGGGTKLEIK
notes: as for B2
FACS MFI [1]: 19500 | FACS MFI [2]: 141000 | FACS MFI [3]: 1830

B9: 11-G10-B4-B11 (antibody, V domains shown)
VH: DVQLQESGPGLVKPSQSLSLTCTVTGYSITSDYAWNWIRQFPGNKLEWMGYISYSGSTSYNPSLKSRISITRDTSKNQFFLQLNSVTTEDTATYYCARGGPWFAYWGQGTLVTVSA
VL: DVVMTQTPLSLPVSLGDQASISCRSSQSLVHSNGNTYLHWYLQKPGQSPKLLIYKVSNRFSGVPDRFSGSGSGTDFTLKISRVEAEDLGVYFCSQSTHVPFTFGSGTKLEIK
notes: as for B2
FACS MFI [1]: 26400 | FACS MFI [2]: 32800 | FACS MFI [3]: 2800

B10: 26-D2-D6-B12 (antibody, V domains shown)
VH: QIQLVQSGPELKKPGETVKISCKASGYIFRNYGMNWVKQAPGKGLKWMGWINSYTGKPTYVDDFKGRFAFSLETSASTAYLQINNLKNEDMATYFCARDDGYWYTMDYWGQGTSVTVSS
VL: DVVMTQTPLSLPVSLGDQASISCRSSQSLVHSNGHTYLHWYLQKPGQSPKLLIYKVSNRFSGVPDRFSGSGSGTDFTLKISRVEAEDLGVYFCSQSTHVPWTFGGGTKLEIK
notes: as for B2
FACS MFI [1]: 63100 | FACS MFI [2]: 47500 | FACS MFI [3]: 1310

B11: 16-G3-D10-C10 (antibody, V domains shown)
VH: QIQLVQSGPELKKPGETVKISCKASGYTFRNYGMNWVKQGPGKDLKWMGWINPYTGEPTYIGDFKGRFAFSLETSANSAYLQINNLNNEDMATYFCARDDGYWYTMDYWGQGTSVTVSS
VL: DVVMTQTPPSLPVSLGDQASIPCRSSQSLVHSNGITYLHWYLQKPGQSPKLLIYKVSNRFSGVPDRFSGSGSGTDFTLKISRVEAEDLGVYFCSQSTHVPWTFGGGTKLEIK
notes: as for B2
FACS MFI [1]: 6190 | FACS MFI [2]: 23200 | FACS MFI [3]: 1320

B12: 11-C12-F4-F6 (antibody, V domains shown)
VH: QIQLVQSGPELKKPGETVKISCKASGYTFRNFGMNWVKQGPGKGLKWMGWINPYTGEPTYVGDFKGRFAFSLETSASTAYLQINNLKNEDMATYFCARDDGYWYTMDYWGQGTSVTVSS
VL: DVVMTQTPPSLPVSLGDQASIPCRSSQSLVHSNGITYLHWYLQKPGQSPKLLIYKVSNRFSGVPDRFSGSGSGTDFTLKISRVEAEDLGVYFCSQSTHVPWTFGGGTKLEIK
notes: as for B2
FACS MFI [1]: 5140 | FACS MFI [2]: 41900 | FACS MFI [3]: 1340

B13: 2-A7-B10-A3 (antibody, V domains shown)
VH: QVQLQQSGAELVRPGVSVKISCKGSGYTFTDYAMHWVKQSHAKSLEWIGVINTNYVNTSYNQKFKGKATMTVDKSSSTAFMELARLTSEDSAIYYCARGGKYGNYVFFFAYWGQGTLVTVSA
VL: DIQMTQTTSSLSASLGDRVTISCRASQDISNYLNWYQQKPDGTVKLLIYYTSRLHSGVPSRFSGSGSGTDYSLTISNLEQEDIATYFCQQGNTLPYTFGGGTKLEIK
notes: as for B2
FACS MFI [1]: 56000 | FACS MFI [2]: 58900 | FACS MFI [3]: 2040

B14: 5-D1-G6-D9 (antibody, V domains shown)
VH: EVQLQESGAELVKPGASVKLSCKTSGLTFSTNYISWLKQKPGQSLEWIAWIYGGNGGTSYNQRFTGKAQLTVDTSSSTAYMQFSSLTTEDSAIYYCTSHDYYGGPMDYWGQGTSVTVSS
VL: DIQMTQTTSSLSASLGDRVTISCRASQDISNYLNWYQQKPDGTVKLLIYFTSRLHSGVPSRFSASGSGTDYSLTISNLEQEDIATYFCQQTNTLPWTFGGGTKLEIK
notes: as for B2
FACS MFI [1]: 62200 | FACS MFI [2]: 45300 | FACS MFI [3]: 1530

B15: 6-D8-E7-A11 (antibody, V domains shown)
VH: QVHLQQPGAELVKPGASVKLSCKASGYTFTNYWMHWVKRRPGQGLEWIGMIHPNSGTTSFNEKFKSKATLTVDKSSSTAYMQLSSLTSEDSAVYYCAGYYGSSFSWFTYWGQGTLVTVSA
VL: QAVVTQESALTTSPGGTVILTCRSSTGAVTTSNFANWVQEKPDHLFTGLIGGTSNRAPGVPVRFSGSLIGDKAALTITGAQTEDDAMYFCALWYSTHYVFGGGTKVTVL
notes: as for B2
FACS MFI [1]: 101000 | FACS MFI [2]: 37900 | FACS MFI [3]: 92600

The next lines start with the values.

FACS MFI [1]: 83500 | FACS MFI [2]: 127000 | FACS MFI [3]: 20600
B1: 18-F9-D8-G7 (antibody, V domains shown)
VH: EVQLQQSGPELVRPGVSVKISCKGSGYTFTDYAMHWVKQSHAQSLEWIGIINTYSGDTNYNQKFKGKATMTVDKSSSTAYMGLARLTSEDSAIFYCARGGGNYPYWYFDVWGAGTTVTVSS
VL: ENVLTQSPAIMSASPGEKVTMTCRASSSVSSSYLHWYQQKSGDSPKLWIYSTSNLASGVPARFSGSGSGTSYSLTISSVEAEDAATYYCQQFSVYPLTFGAGTKLEIK
notes: as for B2

FACS MFI [1]: 15200 | FACS MFI [2]: 85100 | FACS MFI [3]: 1180
B4: 24-C10-F9-G7 (antibody, V domains shown)
VH: EVQLQESGPELVRPGVSVKISCKGSGYTFTDHTMHWVKESHAQSLEWIGVISTYYGNTNYNQNFKGKATLTVDKSSSTAYMELAGLTSEDSAIYYCARASYGSGYGPYYWYFDVWGAGTTVTVSS
VL: DIQMTQSPASLFASVGETVTITCRASEKIYSYLAWYFQKQGKSPQFLVYNANALAEGVPSRFSGSGSGTQFSLKINSLQPEDFGTYYCQHHYGTPVTFGAGSKLELK
notes: as for B2

FACS MFI [1]: 36700 | FACS MFI [2]: 127000 | FACS MFI [3]: 1300
B5: 23-F10-G4-F11 (antibody, V domains shown)
VH: EVQLQESGPDLVRPGALVKLSCKSSGFNIKDYPIHWVRQRPEQGLEWIGWFDPDNGNVIYDPRFQGKASITADTSSNTAYLQLNSLTSEDTAVYYCSSPYGAMDYWGQGTSVTVSS
VL: QIVLTQSPEIMSASPGEKVTMTCSASSSVSYIHWYQQKSGTSPKRWIYDTSKLASGVPARFSGSGSGTSYSLTIRSMEAEDAATYYCQQGSSNPRTFGGGTKLEIK
notes: as for B2

FACS MFI [1]: 20200 | FACS MFI [2]: 71500 | FACS MFI [3]: 1340
B7: 21-B3-B1-H5 (antibody, V domains shown)
VH: QIQLVQSGPELKKPGETVKISCKASGYIFRNYGMNWVKQAPGKGLKWMGWINSYTGKPTYVDDFKGRFAFSLETSASTAYLQINNLKNEDMATYFCARDDGYWYTMDYWGQGTSVTVSS
VL: DVVMTQTPLSLPVSLGDQASISCRSSQSLVHSNGHTYLHWYLQKPGQSPKLLIYKVSNRFSGVPDRFSGSGSGTDFTLKISRVEAEDLGVYFCSQSTHVPWTFGGGTKLEIK
notes: as for B2

FACS MFI [1]: 56500 | FACS MFI [2]: 74300 | FACS MFI [3]: 1670
B8: 22-E11-C3-F2 (antibody, V domains shown)
VH: QIQLVQSGPELKRPGETVKISCKASGYSFTNYGMNWVKQAPGKGLKWMGWINPYTGEPTYADDFKGRFAMSLETSASAAYLQINNLKNEDMATYFCGRDDGYHYTMNYWGQGTSVTVSS
VL: DVVMTQPPLSLPVSLGDQASISCRSSQSLIHSNGDTYLHWYLQKPGQSPKLLIYKVSIRFSGVPDRFSGSGSGTDFTLKISRVEAEDLGVYFCSQSTYVPWTFGGGTKLEIK
notes: as for B2
